In patent US20090175860A1 (Novartis, published 2009):
Positions count from the first letter of the chain named.

B1: 04537 (parental anti-cMet Fab antibody) (Fab, V domains shown)
VH: QVQLVQSGAEVKKPGESLKISCKGSGYSFSNYWIGWVRQMPGKGLEWMGFIFPDTSYTRYSPSFQGQVTISADKSISTAYLQWSSLKASDTAMYYCARVKLITDYWGQGTLVTVSS
VL: DIELTQPPSVSVAPGQTARISCSGDSLRSYFVSWYQQKPGQAPVLVIYDDDDRPSGIPERFSGSNSGNTATLTISGTQAEDEADYYCASWDTLSDVEVFGGGTKLTVLG
notes: carries two C-terminal tags (FLAG and 6xHis)
B2: 04690 (parental anti-cMet Fab antibody) (Fab, V domains shown)
VH: QVQLQQSGPGLVKPSQTLSLTCAISGDSVSSNSAAWGWIRQSPGRGLEWLGRIYYRSKWVNDYAVSVKSRITINPDTSKNQFSLQLNSVTPEDTAVYYCARQGAVYPGPYGFDVWGQGTLVTVSS
VL: DIELTQPPSVSVAPGQTARISCSGDKLGSYFVYWYQQKPGQAPVLVIYDDDNRPSGIPERFSGSNSGNTATLTISGTQAEDEADYYCQSFGISNFYVFGGGTKLTVLG
notes: as for B1
B3: 04541 (parental anti-cMet Fab antibody) (Fab, V domains shown)
VH: QVQLQESGPGLVKPGETLSLTCTVSGGSISSSSYYWNWIRQAPGKGLEWIGEIYFGWTYYNPSLKGRVTISVDTSKNQFSLKLSSVTAEDTAVYYCARGYEFHGYTTFDYWGQGTLVTVSS
VL: DIELTQPPSVSVAPGQTARISCSGDNIGSYYVYWYQQKPGQAPVLVIYDDNDRPSGIPERFSGSNSGNTATLTISGTQAEDEADYYCQSYDFPSIVFGGGTKLTVLG
notes: as for B1
B4: 04682 (parental anti-cMet Fab antibody) (Fab, V domains shown)
VH: QVQLVQSGAEVKKPGESLKISCKGSGYSFTNYGIAWVRQMPGKGLEWMGIIYPSDSYTNYSPSFQGQVTISADKSISTAYLQWSSLKASDTAMYYCARMSYDYQHQAPSMDSWGQGTLVTVSS
VL: DIVLTQPPSVSGAPGQRVTISCSGSSSNIGSNYVIWYQQLPGTAPKLLIYDDTNRPSGVPDRFSGSKSGTSASLAITGLQSEDEADYYCSTYDNYQAGWVFGGGTKLTVLG
notes: as for B1
B5: 05091 in IgG format (antibody, V domains shown)
VH: QVQLVQSGAEVKKPGASVKVSCKASGYTFTGYYMNWVRQAPGQGLEWMGIINPWTGNTNYAQKFQGRVTMTRDTSISTAYMELSSLRSEDTAVYYCARDPGFFYYTPSDLWGQGTLVTVSS
VL: DIELTQPPSVSVAPGQTARISCSGDSIGNKYVHWYQQKPGQAPVLVIYADSDRPSGIPERFSGSNSGNTATLTISGTQAEDEADYYCQSYAHYHDIWVFGGGTKLTVLG
B6: 05098 in IgG format (antibody, V domains shown)
VH: QVQLVQSGAEVKKPGSSVKVSCKASGGTFSSYAISWVRQAPGQGLEWMGGIDPFGTANYAQKFQGRVTITADESTSTAYMELSSLRSEDTAVYYCARVYQDVWGQGTLVTVSS
VL: DIVMTQSPDSLAVSLGERATINCRSSQSILYGINNNFLGWYQQKPGQPPKLLIYWASTRESGVPDRFSGSGSGTDFTLTISSLQAEDVAVYYCLQYSDEPWTFGQGTKVEIKR
B7: 05097 in IgG format (antibody, V domains shown)
VH: B6 VH
VL: DIVMTQSPDSLAVSLGERATINCRSSQSILYGINNNFLGWYQQKPGQPPKLLIYWASTRESGVPDRFSGSGSGTDFTLTISSLQAEDVAVYYCQQYAFGWTFGQGTKVEIKR
B8: 05185 in IgG format (antibody, V domains shown)
VH: B6 VH with F54I, G55M, T56G, A57T, N58E
VL: B6 VL with L94Q, S97A, D98Y, W101N
B9: 04536 in IgG format (antibody, V domains shown)
VH: B5 VH
VL: DIELTQPPSVSVAPGQTARISCSGDSIGNKYVHWYQQKPGQAPVLVIYADSDRPSGIPERFSGSNSGNTATLTISGTQAEDEADYYCQAYDSSMLRVFGGGTKLTVLG
B10: 04537 in IgG format (antibody, V domains shown)
VH: B1 VH
VL: B1 VL
B11: 04541 in IgG format (antibody, V domains shown)
VH: B3 VH
VL: B3 VL
B12: 04687 in IgG format (antibody, V domains shown)
VH: B6 VH
VL: B6 VL with L94Q, S97Y, D98N, E99H, W101H

Molecular target: T1, rhesus c-Met on 4MBr-5 cells (rhesus)
T1 construct: whole, on cells
Experiment: flow cytometry, Fab titration on rhesus 4MBr-5 cells
Protocol: (§1) In order to further characterize the anti-c-Met antibodies, the affinity to full length human and cynomolgus c-Met is determined. GTL16, CHO cells overexpressing cynomolgus c-Met or rhesus 4 MBr-5 cells are washed, trypsinised, and suspended in PBS containing 3% FCS (3% FCS/PBS) at 4-C. 2-5×10⁵ cells/sample are resuspended in 140 μl of 3% FCS//PBS containing 5 μg/ml of purified anti-cMet Fabs or serial dilutions thereof. As a positive control 5 μg/ml of DO24 (mouse IgG2a), anti-human c-Met is used. The cells are incubated for 30-60 minutes at 4° C. before being pelleted by centrifugation for 2 min at 2000 rpm (716 g) at 4° C. and washed in 200 μl of in chilled 3% FCS/PBS. The cells are again pelleted by centrifugation and the PBS gently removed. Cells are resuspended in 100 μl of goat anti-human IgG (H+L) PE conjugated (Jackson Cat No. 109-116-088) diluted 1:200 in 3% FCS/0.02% NaN₃/PBS; For the positive control goat anti-mouse IgG (H+L)-PE conjugated (Jackson Cat No. 115-116-146) diluted 1:200 in 3% FCS/PBS is used. Samples are incubated in the dark for 30-60 min at 4° C. Following centrifugation and washing in 200 μl of 3% FCS/0.02%/NaN₃/PBS the cells are resuspended in 100 μl of 3% FCS/PBS and assayed using FACS-array or FACS-Calibur.

Kd	Binder
0.1 nM	B1
0.1 nM	B2
0.1 nM	B3
0.3 nM	B4

Molecular target: T2, recombinant human c-Met (human, UniProt P08581 25-932, limits assumed)
T2 construct: Soluble recombinant protein: immobilised on the CM5 chip in Biacore, in solution in the equilibrium titration; The precursor is cleaved into disulfide-linked alpha and beta subunits; also called Hepatocyte Growth Factor Receptor
Experiment: SPR (BIAcore), Fab on immobilised human c-Met
Protocol: (§2) Using these clones, kinetic SPR analysis is performed on a CM5 chip (Biacore, Sweden) which had been coated with a density of ˜400 RU of either recombinant human c-Met, in 10 mM Na-acetate pH 4.5 using standard EDC-NHS amine coupling chemistry. […] PBS (136 mM NaCl, 2.7 mM KCl, 10 mM Na2HPO4 , 1.76 mM KH2PO4 pH 7.4) is used as the running buffer. The Fab preparations are applied in concentration series of 16-500 nM at a flow rate of 20 μl/min. Association phase is set to 60 s and dissociation phase to 120 s.

T2 sequence (P08581 25-932 limits assumed): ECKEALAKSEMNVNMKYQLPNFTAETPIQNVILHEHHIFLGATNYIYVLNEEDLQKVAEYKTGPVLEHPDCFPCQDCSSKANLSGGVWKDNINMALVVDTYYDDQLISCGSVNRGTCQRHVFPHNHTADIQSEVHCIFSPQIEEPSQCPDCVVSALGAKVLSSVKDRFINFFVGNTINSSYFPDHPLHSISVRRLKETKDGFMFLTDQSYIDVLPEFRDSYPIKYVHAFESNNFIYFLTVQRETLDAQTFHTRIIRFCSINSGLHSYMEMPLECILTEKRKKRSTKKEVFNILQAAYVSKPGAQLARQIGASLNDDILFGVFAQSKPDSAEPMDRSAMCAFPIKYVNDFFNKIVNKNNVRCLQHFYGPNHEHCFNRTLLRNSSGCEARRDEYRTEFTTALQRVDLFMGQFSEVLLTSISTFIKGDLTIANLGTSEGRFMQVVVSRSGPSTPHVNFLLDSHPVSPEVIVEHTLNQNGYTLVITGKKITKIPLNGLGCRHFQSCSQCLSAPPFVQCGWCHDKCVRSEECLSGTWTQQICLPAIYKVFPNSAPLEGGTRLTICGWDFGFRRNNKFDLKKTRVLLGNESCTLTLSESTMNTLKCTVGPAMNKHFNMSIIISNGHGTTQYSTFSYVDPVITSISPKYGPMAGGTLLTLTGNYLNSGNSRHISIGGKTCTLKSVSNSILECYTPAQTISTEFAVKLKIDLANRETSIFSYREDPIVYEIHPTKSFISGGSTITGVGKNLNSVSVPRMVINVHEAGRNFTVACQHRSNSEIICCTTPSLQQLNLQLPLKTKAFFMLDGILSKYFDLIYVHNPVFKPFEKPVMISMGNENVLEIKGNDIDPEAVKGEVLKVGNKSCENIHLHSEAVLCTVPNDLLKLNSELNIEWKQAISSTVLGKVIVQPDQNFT

Kd	Binder
1.7 nM	B1
2.6 nM	B3

Molecular target: T3, cynomolgus c-Met on CHO cells (cynomolgus, UniProt A0A2K5UM36 25-1381, The natural precursor is cleaved into disulfide-linked alpha and beta subunits. It is given here as one mature chain, following the entry's CHAIN feature.)
T3 construct: also called cyno c-Met; CHO-cMet cyno
Experiment: flow cytometry, Fab titration on CHO cells overexpressing cynomolgus c-Met
Protocol: as §1

T3 sequence (A0A2K5UM36 entry or part of it limits assumed): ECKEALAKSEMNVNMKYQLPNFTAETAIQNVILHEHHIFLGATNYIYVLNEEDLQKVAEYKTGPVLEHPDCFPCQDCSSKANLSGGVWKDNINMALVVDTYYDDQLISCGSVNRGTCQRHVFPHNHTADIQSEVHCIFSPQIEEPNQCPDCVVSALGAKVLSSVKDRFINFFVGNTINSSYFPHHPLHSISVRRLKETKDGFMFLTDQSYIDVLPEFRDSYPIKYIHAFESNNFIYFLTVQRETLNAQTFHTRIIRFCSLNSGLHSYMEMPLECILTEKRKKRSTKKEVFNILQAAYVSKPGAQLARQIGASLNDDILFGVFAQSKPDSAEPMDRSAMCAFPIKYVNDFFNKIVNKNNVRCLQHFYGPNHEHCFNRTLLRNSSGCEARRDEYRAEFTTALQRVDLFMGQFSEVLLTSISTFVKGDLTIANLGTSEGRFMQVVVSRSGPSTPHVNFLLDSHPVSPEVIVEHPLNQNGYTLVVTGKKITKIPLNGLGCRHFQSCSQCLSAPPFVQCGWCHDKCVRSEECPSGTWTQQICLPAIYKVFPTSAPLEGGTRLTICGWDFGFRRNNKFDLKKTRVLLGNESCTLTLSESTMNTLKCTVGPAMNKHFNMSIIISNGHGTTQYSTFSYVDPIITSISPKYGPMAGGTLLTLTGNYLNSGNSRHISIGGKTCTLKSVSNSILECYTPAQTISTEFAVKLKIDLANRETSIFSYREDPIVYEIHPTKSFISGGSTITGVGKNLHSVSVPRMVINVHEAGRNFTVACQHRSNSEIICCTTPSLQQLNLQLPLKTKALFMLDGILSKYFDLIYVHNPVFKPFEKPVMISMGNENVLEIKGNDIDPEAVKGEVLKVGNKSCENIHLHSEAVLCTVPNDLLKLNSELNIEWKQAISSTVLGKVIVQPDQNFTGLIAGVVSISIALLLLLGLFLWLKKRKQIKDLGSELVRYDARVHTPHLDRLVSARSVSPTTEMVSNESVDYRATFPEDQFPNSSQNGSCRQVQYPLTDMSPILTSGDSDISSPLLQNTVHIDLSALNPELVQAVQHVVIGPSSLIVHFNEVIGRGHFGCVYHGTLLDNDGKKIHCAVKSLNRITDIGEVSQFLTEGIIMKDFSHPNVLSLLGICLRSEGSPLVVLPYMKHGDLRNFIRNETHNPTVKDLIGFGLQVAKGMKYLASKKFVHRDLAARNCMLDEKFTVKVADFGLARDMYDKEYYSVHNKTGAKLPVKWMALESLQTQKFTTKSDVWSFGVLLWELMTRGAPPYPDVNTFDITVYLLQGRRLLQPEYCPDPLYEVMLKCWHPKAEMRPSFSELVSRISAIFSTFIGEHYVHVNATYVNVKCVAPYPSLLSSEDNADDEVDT

Kd	Binder
0.3 nM	B4

Molecular target: T4, full length human c-Met on cells (human, UniProt P08581 25-1390)
Experiment: cell-based or functional assay

T4 sequence (P08581 25-1390): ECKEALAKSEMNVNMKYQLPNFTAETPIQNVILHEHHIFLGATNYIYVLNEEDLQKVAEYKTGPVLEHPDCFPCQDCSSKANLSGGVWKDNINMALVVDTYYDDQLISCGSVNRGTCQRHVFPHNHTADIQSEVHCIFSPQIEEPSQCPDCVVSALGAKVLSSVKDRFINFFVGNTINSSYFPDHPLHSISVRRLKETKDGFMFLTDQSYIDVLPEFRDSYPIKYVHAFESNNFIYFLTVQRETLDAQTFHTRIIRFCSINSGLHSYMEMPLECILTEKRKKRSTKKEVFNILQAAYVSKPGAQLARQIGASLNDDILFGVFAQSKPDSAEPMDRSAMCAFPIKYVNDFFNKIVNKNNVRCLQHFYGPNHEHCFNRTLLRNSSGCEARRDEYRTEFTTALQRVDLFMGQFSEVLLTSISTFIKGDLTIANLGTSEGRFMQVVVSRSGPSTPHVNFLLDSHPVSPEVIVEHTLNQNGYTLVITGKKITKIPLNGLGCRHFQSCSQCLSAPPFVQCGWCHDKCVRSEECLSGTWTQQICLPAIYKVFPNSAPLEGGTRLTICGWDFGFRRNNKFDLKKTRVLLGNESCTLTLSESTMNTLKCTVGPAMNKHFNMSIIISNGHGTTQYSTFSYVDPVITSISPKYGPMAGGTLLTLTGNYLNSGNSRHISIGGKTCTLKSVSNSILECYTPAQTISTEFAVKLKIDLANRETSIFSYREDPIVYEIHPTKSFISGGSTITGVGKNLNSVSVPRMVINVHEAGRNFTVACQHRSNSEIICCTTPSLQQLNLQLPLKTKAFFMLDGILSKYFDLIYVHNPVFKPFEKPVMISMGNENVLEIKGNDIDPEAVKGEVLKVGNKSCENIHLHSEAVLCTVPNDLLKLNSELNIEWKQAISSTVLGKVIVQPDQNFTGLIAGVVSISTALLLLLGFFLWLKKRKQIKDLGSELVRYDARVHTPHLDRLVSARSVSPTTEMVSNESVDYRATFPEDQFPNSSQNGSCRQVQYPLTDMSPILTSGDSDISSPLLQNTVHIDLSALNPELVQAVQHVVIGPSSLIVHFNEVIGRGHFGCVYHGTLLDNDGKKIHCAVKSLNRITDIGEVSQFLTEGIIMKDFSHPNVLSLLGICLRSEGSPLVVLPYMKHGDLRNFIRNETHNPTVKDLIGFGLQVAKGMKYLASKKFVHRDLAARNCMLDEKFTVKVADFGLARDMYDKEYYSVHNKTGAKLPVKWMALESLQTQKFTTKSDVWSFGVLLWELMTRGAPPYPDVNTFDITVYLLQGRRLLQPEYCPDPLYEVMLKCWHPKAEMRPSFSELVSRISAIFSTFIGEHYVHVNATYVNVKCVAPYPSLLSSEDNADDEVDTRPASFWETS

EC50 [nM] Inhibition of HGF driven migration NCI-H441 in 1% serum	Binder
0.61 nM	B5
0.73 nM	B6
0.76 nM	B7
1.2 nM	B8

Molecular target: T3, cynomolgus c-Met on CHO cells
Experiment: flow cytometry, Fab on CHO-cyno c-Met cells
Protocol: as §1

Kd	Binder
12.7 nM	B1
0.6 nM	B3

Molecular target: T4, full length human c-Met on cells
Experiment: cell-based or functional assay
Remark: another data set of the same source

EC50 [nM] Inhibition of HGF stimulated c-Met autophosphorylation in A549	Binder
0.193 nM	B5
0.419 nM	B6
0.166 nM	B7
0.219 nM	B8

Molecular target: T4, full length human c-Met on cells
Experiment: cell-based or functional assay
Remark: another data set of the same source

EC50 [nM] Inhibition of HGF driven migration NCI-H441	Binder
0.61 nM	B9
0.14 nM	B10
0.27 nM	B11
1.68 nM	B12

Molecular target: T1, rhesus c-Met on 4MBr-5 cells
Experiment: cell-based or functional assay

EC50 [nM] Inhibition of HGF driven proliferation 4MBr-5	Binder
4 nM	B9
150 nM	B10
200 nM	B11
6 nM	B12

Molecular target: T2, recombinant human c-Met
Experiment: SPR (BIAcore), c-Met amine-coupled on CM5 chip, Fab 16-500 nM as analyte
Protocol: as §2

Kd	Binder
1.7 nM	B1
66 nM	B2
2.6 nM	B3
11.2 nM	B4

Molecular target: T1, rhesus c-Met on 4MBr-5 cells
Experiment: cell-based or functional assay
Remark: another data set of the same source

EC50 [nM] Inhibition of HGF driven proliferation 4MBr-5 in 10% serum	Binder
1.3 nM	B5
0.5 nM	B6
1.6 nM	B7
0.13 nM	B8

Molecular target: T4, full length human c-Met on cells
Experiment: flow cytometry, Fab titration on GTL-16 cells
Protocol: as §1

Kd	Binder
2.6 nM	B1
1.1 nM	B2
0.5 nM	B3
1.2 nM	B4

Molecular target: T4, full length human c-Met on cells
Experiment: flow cytometry, Fab on GTL-16 cells
Protocol: as §1

Kd	Binder
1.5 nM	B1
1.7 nM	B3

Molecular target: T4, full length human c-Met on cells
Experiment: cell-based or functional assay
Remark: another data set of the same source

EC50 [nM] NCI-H441 Migration IgG	Binder
0.61 nM	B9
0.14 nM	B10
0.27 nM	B11
1.68 nM	B12

Molecular target: T1, rhesus c-Met on 4MBr-5 cells
Experiment: cell-based or functional assay
Remark: another data set of the same source

EC50 [nM] 4Mbr-5 Proliferation IgG	Binder
4 nM	B9
150 nM	B10
200 nM	B11
6 nM	B12
